The values that follow are results of earlier work, collected in article PMC2879597.

One may read the Kd as the concentration at which binding is half-saturated.

The target of this data set is hIL-10/sIL-10R1 complex (Homo sapiens) (UniProt P22301).
Sequence of hIL-10/sIL-10R1 complex (Homo sapiens) (P22301 19-178, chain 1 of 2): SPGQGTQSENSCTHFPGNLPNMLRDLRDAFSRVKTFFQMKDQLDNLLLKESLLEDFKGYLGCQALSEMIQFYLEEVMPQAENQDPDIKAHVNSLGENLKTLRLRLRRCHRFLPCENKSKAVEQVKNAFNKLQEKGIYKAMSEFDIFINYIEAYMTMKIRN
Sequence of hIL-10/sIL-10R1 complex (Homo sapiens) (Q13651 22-235, chain 2 of 2, further chain): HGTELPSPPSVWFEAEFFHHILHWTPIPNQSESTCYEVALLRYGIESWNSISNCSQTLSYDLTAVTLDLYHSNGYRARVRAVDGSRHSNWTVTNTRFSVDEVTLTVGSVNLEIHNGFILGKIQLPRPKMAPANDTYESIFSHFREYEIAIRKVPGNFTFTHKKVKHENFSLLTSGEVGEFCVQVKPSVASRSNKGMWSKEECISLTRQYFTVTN

Sequence of sIL-10R2 ECD (Q08334 20-220): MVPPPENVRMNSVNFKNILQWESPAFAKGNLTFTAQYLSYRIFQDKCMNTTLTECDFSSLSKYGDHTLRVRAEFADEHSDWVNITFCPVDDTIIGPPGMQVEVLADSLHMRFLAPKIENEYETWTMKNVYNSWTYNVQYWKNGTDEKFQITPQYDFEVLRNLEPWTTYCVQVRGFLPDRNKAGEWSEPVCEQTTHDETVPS

sIL-10R2 ECD (from UniProt Q08334): the Kd was 250 µM.
